In paper PMC10397247:

Experiments:
Assay in all cases: two-hybrid library CCNG1;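 note: natural log of median RNA to DNA barcode read ratio; higher means stronger binding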
4H3172-bA = target: T1, 4H3172-bA
T1 chain: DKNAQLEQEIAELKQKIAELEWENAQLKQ

P11A = target: T2, P11A
T2 chain: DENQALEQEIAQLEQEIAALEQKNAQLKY

4H3631-bA = target: T3, 4H3631-bA
T3 chain: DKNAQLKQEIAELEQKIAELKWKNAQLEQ

4H906-bA = target: T4, 4H906-bA
T4 chain: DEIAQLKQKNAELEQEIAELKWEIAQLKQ

4H3414-bA = target: T5, 4H3414-bA
T5 chain: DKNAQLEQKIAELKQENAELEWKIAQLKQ

4H3974-bA = target: T6, 4H3974-bA
T6 chain: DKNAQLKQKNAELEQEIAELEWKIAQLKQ

4H570-bA = target: T7, 4H570-bA
T7 chain: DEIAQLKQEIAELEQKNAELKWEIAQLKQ

4H584-bA = target: T8, 4H584-bA
T8 chain: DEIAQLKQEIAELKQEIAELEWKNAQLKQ

4H850-bA = target: T9, 4H850-bA
T9 chain: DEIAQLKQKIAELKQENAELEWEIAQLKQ

4H3817-bA = target: T10, 4H3817-bA
T10 chain: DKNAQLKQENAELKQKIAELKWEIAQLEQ

4H619-bA = target: T11, 4H619-bA
T11 chain: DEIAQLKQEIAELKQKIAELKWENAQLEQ

4H3129-bA = target: T12, 4H3129-bA
T12 chain: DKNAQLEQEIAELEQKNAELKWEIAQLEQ

4H3638-bA = target: T13, 4H3638-bA
T13 chain: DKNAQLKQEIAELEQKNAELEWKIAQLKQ

4H949-bA = target: T14, 4H949-bA
T14 chain: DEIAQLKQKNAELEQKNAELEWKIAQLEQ

4H3364-bA = target: T15, 4H3364-bA
T15 chain: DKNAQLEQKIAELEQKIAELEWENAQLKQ

4H56-bA = target: T16, 4H56-bA
T16 chain: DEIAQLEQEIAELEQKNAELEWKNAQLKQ

4H3041-bA = target: T17, 4H3041-bA
T17 chain: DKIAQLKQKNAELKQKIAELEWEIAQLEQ

4H3381-bA = target: T18, 4H3381-bA
T18 chain: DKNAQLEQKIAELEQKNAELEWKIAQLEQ

4H3497-bA = target: T19, 4H3497-bA
T19 chain: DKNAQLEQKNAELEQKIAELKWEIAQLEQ

4H796-bA = target: T20, 4H796-bA
T20 chain: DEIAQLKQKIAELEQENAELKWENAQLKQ

4H349-bA = target: T21, 4H349-bA
T21 chain: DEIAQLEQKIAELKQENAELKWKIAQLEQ

4H3381-bH = target: T22, 4H3381-bH
T22 chain: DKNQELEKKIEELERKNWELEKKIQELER

4H2931-bA = target: T23, 4H2931-bA
T23 chain: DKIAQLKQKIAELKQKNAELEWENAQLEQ

4H730-bA = target: T24, 4H730-bA
T24 chain: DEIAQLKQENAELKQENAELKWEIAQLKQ

4H932-bA = target: T25, 4H932-bA
T25 chain: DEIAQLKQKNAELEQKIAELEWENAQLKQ

4H3297-bA = target: T26, 4H3297-bA
T26 chain: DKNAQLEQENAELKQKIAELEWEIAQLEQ

B1: 4H3129-bA (peptide)
chain: DKNAQLEQEIAELEQKNAELKWEIAQLEQ
B1 showed an interaction score (4H3172-bA) of -1.38, an interaction score (P11A) of 0.0953 and an interaction score (4H3631-bA) of -0.762. It also gave an interaction score (4H906-bA) of -0.839, an interaction score (4H3414-bA) of 2.61 and an interaction score (4H3974-bA) of -0.932. For the same binder, the interaction score (4H570-bA) was -1.13, the interaction score (4H584-bA) was -1.75 and the interaction score (4H850-bA) was 0.0228. For the same binder, the interaction score (4H3817-bA) was -0.661, the interaction score (4H619-bA) was -1.59 and the interaction score (4H3129-bA) was -0.78. For the same binder, the interaction score (4H3638-bA) was 0.

B2: 4H2931-bA (peptide)
chain: DKIAQLKQKIAELKQKNAELEWENAQLEQ
In the case of B2, the interaction score (4H949-bA) is reported as -1.37, the interaction score (P11A) is reported as 1.31 and the interaction score (4H3364-bA) is reported as -1.11. It also gave an interaction score (4H56-bA) of 0.684, an interaction score (4H3041-bA) of -0.32 and an interaction score (4H3381-bA) of -1.36. The interaction score (4H3497-bA) was -1.04, the interaction score (4H796-bA) was -0.693 and the interaction score (4H349-bA) was -1.08. For the same binder, the interaction score (4H3381-bH) was -0.208, the interaction score (4H2931-bA) was -0.604 and the interaction score (4H730-bA) was -1.14. It also gave an interaction score (4H932-bA) of -1.36 and an interaction score (4H3297-bA) of -0.644.
